{"source": "patent US20130280162A1", "about": "(IFOM FONDAZIONE ISTITUTO FIRC DI ONCOLOGIA MOLECOLARE, published 2013)", "binders": {"B1": {"name": "uPAR/mFc (human uPAR tagged with a murine immunoglobulin heavy chain constant region) (Fc fusion)", "chain": "LRCMQCKTNGDCRVEECALGQDLCRTTIVRLWEEGEELELVEKSCTHSEKTNRTLSYRTGLKITSLTEVVCGLDLCNQGNSGRAVTYSRSRYLECISCGSSDMSCERGRHQSLQCRSPEEQCLDVVTHWIQEGEEGRPKDDRHLRGCGYLPGCPGSNGFHNNDTFHFLKCCNTTKCNEGPILELENLPQNGRQCYSCKGNSTHGCSSEETFLIDCRGPMNQCLVATGTHEPKNQSYMVRGCATASMCQHAHLGDAFSMNHIDVSCCTKSGCNHPDLDLEVLFQGPLEAGAG", "notes": "also called uPAR tagged with a mouse Fc; Fc-tagged uPAR; not shown: mouse immunoglobulin IgG1 heavy chain, amino acids 216-441 numbered according to Adetugbo 1978 (clone IRAVp968B035D); th"}}, "key": {"[1]": {"molecular_target": "T1, vitronectin (VN) (human, UniProt P04004 20-478)", "T1 construct": "also called immobilized VN", "T1 sequence (P04004 20-478)": "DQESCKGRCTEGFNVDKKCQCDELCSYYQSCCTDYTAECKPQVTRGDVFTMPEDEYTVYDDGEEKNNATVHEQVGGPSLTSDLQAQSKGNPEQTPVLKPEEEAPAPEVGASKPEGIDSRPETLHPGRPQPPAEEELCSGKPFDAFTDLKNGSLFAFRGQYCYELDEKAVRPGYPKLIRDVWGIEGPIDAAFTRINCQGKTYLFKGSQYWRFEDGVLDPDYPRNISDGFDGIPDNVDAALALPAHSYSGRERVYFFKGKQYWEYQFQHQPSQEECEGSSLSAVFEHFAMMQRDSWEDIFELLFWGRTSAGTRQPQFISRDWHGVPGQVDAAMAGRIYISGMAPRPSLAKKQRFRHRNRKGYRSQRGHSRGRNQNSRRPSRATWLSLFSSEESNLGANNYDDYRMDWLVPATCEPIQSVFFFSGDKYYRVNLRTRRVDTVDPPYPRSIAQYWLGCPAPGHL", "experiment": "plate assay: uPAR/mFc (5 nM) with increasing uPA on immobilized VN (FIG. 4C)", "experimental": "96-well immuno plates (NUNC MaxiSorb, blackwell) were coated with pro-uPA or VN (100 μl, 10 nM) diluted in coating buffer (50 mM sodium carbonate, pH 9.6) at 4° C. ON. Plates were washed with wash buffer (phosphate buffered saline (PBS) containing 0.1% Tween-20 (PBS-T)) and non-specific binding sites blocked (0.15 ml/well) with blocking buffer (PBS containing 2% bovine serum albumin (BSA)) for 1-2 hour at RT. […] The binding was allowed to occur for 1-2 hours at RT and the plates washed three times with wash buffer. Bound uPAR/mFc was detected by sequential incubations with a biotinylated goat anti-mouse Fc antibody (Sigma) and Eu³⁺ labeled streptavidin (Perkin Elmer). Bound Eu³⁺ was quantified by dissociation-enhanced time-resolved fluorescence measurement using an Envision Xcite plate reader (Perkin Elmer) using the DELFIA protocol.\nTo test the activity of uPAR-lock as an antagonist of the uPAR:VN-interaction the author utilized a binding assay in which uPAR/mFc is allowed to bind immobilized VN in the presence of uPA (FIG. 4C). In this assay uPAR/mFc binds to immobilized VN with high affinity in an uPA-dependent manner. To test the activity of uPAR-lock the author conducted the experiment with a fixed concentration of uPAR/mFc (1 nM) and an excess of uPA (5 nM) mixed with increasing concentrations of uPAR-lock or uPA for comparison (FIG. 4D). […]"}, "[2]": {"molecular_target": "T2, urokinase-type plasminogen activator (uPA) (human, UniProt P00749 21-431)", "T2 construct": "also called pro-uPA; immobilized uPA", "experiment": "plate assay: increasing uPAR/mFc on immobilized uPA, anti-mouse Fc and Eu-streptavidin (FIG. 4A)", "experimental": "Immobilized uPA was incubated with increasing concentrations of uPAR tagged with a mouse Fc (uPAR/mFc). After washing bound uPAR/mFc was quantified using a biotinylated anti-mouse Fc antibody and Europium labeled streptavidin. Note that uPAR/mFc display specific high-affinity binding to immobilized uPA.\n96-well immuno plates (NUNC MaxiSorb, blackwell) were coated with pro-uPA or VN (100 μl, 10 nM) diluted in coating buffer (50 mM sodium carbonate, pH 9.6) at 4° C. ON. Plates were washed with wash buffer (phosphate buffered saline (PBS) containing 0.1% Tween-20 (PBS-T)) and non-specific binding sites blocked (0.15 ml/well) with blocking buffer (PBS containing 2% bovine serum albumin (BSA)) for 1-2 hour at RT. After washing with PBS-T, wells were incubated with uPAR/mFc (1 nM) in the presence or absence of the agonists and antagonists to be tested prepared in dilution buffer (PBS containing 1% BSA). The binding was allowed to occur for 1-2 hours at RT and the plates washed three times with wash buffer. Bound uPAR/mFc was detected by sequential incubations with a biotinylated goat anti-mouse Fc antibody (Sigma) and Eu³⁺ labeled streptavidin (Perkin Elmer). Bound Eu³⁺ was quantified by dissociation-enhanced time-resolved fluorescence measurement using an Envision Xcite plate reader (Perkin Elmer) using the DELFIA protocol."}}, "data": [{"binder": "B1", "values": [{"measurement": "binding result", "setting": "[1]", "value": "binds"}, {"measurement": "binding result", "setting": "[2]", "value": "binds"}]}]}
